± gives the uncertainty stated by the source.
B1: CD2-associated protein, residues 109 to 169; numbered along this chain, Q9Y5K6 (parent)
chain: KKRQCKVLFEYIPQNEDELELKVGDIIDINEEVEEGWWSGTLNNKLGLFPSNFVKELEVTD

Variants of: B1
Assay: abundance fitness (aPCA) (normalised: wild type 0, dead -1); higher = more abundant; growth selection in yeast, the domain comes from the species named
Settings: Homo sapiens

Point of comparison: KKRQCKVLFEYIPQNEDELELKVGDIIDINEEVEEVWWSGTLNNKLGLFPSNFVKELEVTD [G36V], abundance fitness -0.651 ± 0.12. Against it:
- KKRQCKVLFEYIPQNEDELELKVGDIIDINEEVEEGVWSGTLNNKLGLFPSNFVKELEVTD [W37V] — higher, -0.255 ± 0.13
- KKRQCKVLFEYIPQNEDELELKVGDIIDINEEVEEGSWSGTLNNKLGLFPSNFVKELEVTD [W37S] — within error, -0.77 ± 0.24
- KKRQCKVLFEYIPQNEDELELKVGDIIDINEEVEEGEWSGTLNNKLGLFPSNFVKELEVTD [W37E] — higher, 0 ± 0.24
- KKRQCKVLFEYIPQNEDELELKVGDIIDINEEVEEGDWSGTLNNKLGLFPSNFVKELEVTD [W37D] — within error, -0.387 ± 0.4
- KKRQCKVLFEYIPQNEDELELKVGDIIDINEEVEEGPWSGTLNNKLGLFPSNFVKELEVTD [W37P] — within error, -0.541 ± 0.2
- KKRQCKVLFEYIPQNEDELELKVGDIIDINEEVEEGWWQGTLNNKLGLFPSNFVKELEVTD [S39Q] — higher, -0.217 ± 0.097
- KKRQCKVLFEYIPQNEDELELKVGDIIDINEEVEEGWWWGTLNNKLGLFPSNFVKELEVTD [S39W] — higher, -0.03 ± 0.12
- KKNQCKVLFEYIPQNEDELELKVGDIIDINEEVEEGWWSGTLNNKLGLFPSNFVKELEVTD [R3N] — higher, -0.388 ± 0.11
- KKGQCKVLFEYIPQNEDELELKVGDIIDINEEVEEGWWSGTLNNKLGLFPSNFVKELEVTD [R3G] — higher, -0.21 ± 0.065
- KKRQCKVLFEYRPQNEDELELKVGDIIDINEEVEEGWWSGTLNNKLGLFPSNFVKELEVTD [I12R] — higher, -0.253 ± 0.11
- KKRQCKVLFEYSPQNEDELELKVGDIIDINEEVEEGWWSGTLNNKLGLFPSNFVKELEVTD [I12S] — higher, -0.138 ± 0.13
- KKRQCKVLFEYIPQNEDELELKVGDIIDINEEVEEGWWSGTLNNKLSLFPSNFVKELEVTD [G47S] — lower, -1.05 ± 0.26
- KKRQCKVLFEYIPQNEDELELKVGDIIDINEEVEEGWWSGTLNNKLGLFPSNFVKELEVTA [D61A] — higher, -0.29 ± 0.22
- KKRQCKVLFEYIPQNEDELELKVGDIIDINEEVEEGWWSGTLNNKLGLFPSNFVKELEVQD [T60Q] — higher, 0.039 ± 0.13
- KKRQCKVLFEYIPQNEDELELKVGDIIDINEEVEEGWWSGTLNNKLGLFPSNFVKELEVDD [T60D] — higher, 0.183 ± 0.28
- KKRQCKVLFEYIPQNEDELELKVGDIIDINEEVEEGWWSGTLNNKLGLFPSNFVKELEVVD [T60V] — within error, -0.399 ± 0.27
- KKRQCKVLFEYIPQNEDELELKVGDIIDINEEVEEGWWSGTLNNKLGLFPSNFVKELEVHD [T60H] — higher, 0.045 ± 0.16
- KKRQCLVLFEYIPQNEDELELKVGDIIDINEEVEEGWWSGTLNNKLGLFPSNFVKELEVTD [K6L] — higher, 0.255 ± 0.046
- KKRQCKVLFEYIPQNEDELELKVGDIIVINEEVEEGWWSGTLNNKLGLFPSNFVKELEVTD [D28V] — higher, -0.314 ± 0.082
- KKRQCKVLFEYIPQNEDELELKVGDIIDLNEEVEEGWWSGTLNNKLGLFPSNFVKELEVTD [I29L] — higher, -0.219 ± 0.077
- KKRQCKVLFEYIPQNEDELELKVGDIIDYNEEVEEGWWSGTLNNKLGLFPSNFVKELEVTD [I29Y] — within error, -0.886 ± 0.31
- KKRQCKVLFEYIPQNEDELELKVGDIIDINMEVEEGWWSGTLNNKLGLFPSNFVKELEVTD [E31M] — higher, -0.26 ± 0.17
- KKRQCKVLFEYIPQNEDELELKVGDIIDINVEVEEGWWSGTLNNKLGLFPSNFVKELEVTD [E31V] — higher, -0.354 ± 0.1
- KKRQCKVLFEYIPQNEDELELKVGDIIDINGEVEEGWWSGTLNNKLGLFPSNFVKELEVTD [E31G] — higher, -0.187 ± 0.16
- KKRQCKVLFEYIPQNEDELELKVGDIIDINEEVSEGWWSGTLNNKLGLFPSNFVKELEVTD [E34S] — higher, 0.016 ± 0.11
- KKRQCKVLFEYIPQNEDELELKVGDIIDINEEVFEGWWSGTLNNKLGLFPSNFVKELEVTD [E34F] — within error, -0.393 ± 0.3
- KKRQCKVLFEYIPQNEDELELKVGDIIDINEEVQEGWWSGTLNNKLGLFPSNFVKELEVTD [E34Q] — higher, -0.147 ± 0.23
- KKRQCKVLFEYIPQNEDELELKVGDIIDINEEVEEGWWSGTLNNKLGLFPSRFVKELEVTD [N52R] — higher, 0.048 ± 0.079
- KKRQCKVLFEYIPQNEDELELKVGDIIDINEEVEEGWWSGTLNNKLGLFPSMFVKELEVTD [N52M] — higher, -0.12 ± 0.17
- KKRQCKVLFEYIPQNEDELELKVGDIIDIEEEVEEGWWSGTLNNKLGLFPSNFVKELEVTD [N30E] — higher, 0.302 ± 0.24
- KKRQCKVLFEYIPQNEDELELKVGDIIDINEEVEEGWWSGTLNNKLGLFPSNFVKELESTD [V59S] — higher, 0.163 ± 0.088
- KKRQCKVLFEYIPQNEDELELKVGDIIDINEEVEEGWWSGTLNNKLGLFPSNFVKELERTD [V59R] — higher, -0.131 ± 0.078
- KKRQCKVLFEYIPQNEDELELKVGDIIDINEEVEEGWWSGTLNNKLGLFPSNFVKEWEVTD [L57W] — within error, -0.486 ± 0.18
- KKRQCKVLFEYIPQNEDELELKVGDIIDINEEVEEGWWSGTLNNKLGLFPSNFVKECEVTD [L57C] — higher, -0.041 ± 0.33
- KKRQCKVLFEYIPQNEDKLELKVGDIIDINEEVEEGWWSGTLNNKLGLFPSNFVKELEVTD [E18K] — within error, -0.411 ± 0.41
- KKRQCKVLFEYIPQNEDALELKVGDIIDINEEVEEGWWSGTLNNKLGLFPSNFVKELEVTD [E18A] — within error, -0.783 ± 0.27
- KKRQCKVLFEYIPQNEDPLELKVGDIIDINEEVEEGWWSGTLNNKLGLFPSNFVKELEVTD [E18P] — within error, -0.986 ± 0.34
- KKRQCKQLFEYIPQNEDELELKVGDIIDINEEVEEGWWSGTLNNKLGLFPSNFVKELEVTD [V7Q] — higher, 0.1 ± 0.16
- KKRQCKVLFEYIPQNKDELELKVGDIIDINEEVEEGWWSGTLNNKLGLFPSNFVKELEVTD [E16K] — within error, -0.434 ± 0.24
- KKRQCKVLFEYIPQNEDELELKVGDIIDINEIVEEGWWSGTLNNKLGLFPSNFVKELEVTD [E32I] — within error, -0.28 ± 0.41
- KKRQCKVLFEYIPQNEDELELKVGDIIDINEEVEEGWWSGTLQNKLGLFPSNFVKELEVTD [N43Q] — higher, -0.275 ± 0.15
- KKRQCKVLFSYIPQNEDELELKVGDIIDINEEVEEGWWSGTLNNKLGLFPSNFVKELEVTD [E10S] — higher, 0.081 ± 0.076
- KKRQCKVLFMYIPQNEDELELKVGDIIDINEEVEEGWWSGTLNNKLGLFPSNFVKELEVTD [E10M] — within error, -0.579 ± 0.34
